{
  "source": "paper PMC2997469",
  "about": "(Bioorganic & medicinal chemistry letters, 2010)",
  "binders": {"B1": {"name": "PSmac-21 (compound 1), cyclopeptidic Smac mimetic (peptide)", "peptide": "AKPF", "modifications": "also: cyclopeptidic structure not given here"}},
  "key": {"[1]": {"target": "T1, XIAP protein containing linker-BIR2–BIR3", "T1 chain": "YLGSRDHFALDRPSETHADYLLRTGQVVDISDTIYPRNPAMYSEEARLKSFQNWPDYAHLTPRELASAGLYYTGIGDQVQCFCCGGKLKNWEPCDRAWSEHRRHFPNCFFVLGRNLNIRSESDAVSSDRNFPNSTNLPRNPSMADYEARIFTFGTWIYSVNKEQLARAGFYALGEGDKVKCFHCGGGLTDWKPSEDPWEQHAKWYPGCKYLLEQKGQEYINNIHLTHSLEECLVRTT", "assay": "fluorescence polarisation"}, "cIAP-1 BIR3 protein": {"target": "T2, cIAP-1 BIR3 protein", "T2 chain": "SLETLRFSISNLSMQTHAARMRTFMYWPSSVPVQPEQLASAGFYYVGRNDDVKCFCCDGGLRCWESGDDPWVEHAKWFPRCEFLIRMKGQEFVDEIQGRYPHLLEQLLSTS", "assay": "fluorescence polarisation"}},
  "note": "No end group written: not given here.",
  "data": [
    {"binder": "B1", "values": [
      {"measurement": "IC50 site 1", "setting": "[1]", "value": 1, "unit": "nM"},
      {"measurement": "IC50 site 2", "setting": "[1]", "value": 481, "unit": "nM"},
      {"measurement": "Ki", "setting": "cIAP-1 BIR3 protein", "value": "84 ± 9", "unit": "nM"}
    ]}
  ]
}
